Laboratory results reported in the supplement of paper PMC9170038.

System: MS2 coat protein
Assay: apparent KD of MS2 coat protein; designed switch direction (-1 OFF switch, 1 ON switch): -1; higher = weaker reporter binding
Settings: Eterna round: R98
Method: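 RNA-MaP: designed FMN/MS2 RNA switches (84 nt design region) are transcribed on-chip within common flanks and titrated with SNAP-549-labelled MS2 coat protein (about 1-3000 nM) in 100 mM Tris pH 7.5, 80 mM KCl, 4 mM MgCl2, without or with 200 uM FMN. Median apparent KD per design; activation ratio = KD,OFF / KD,ON.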

Sequence	apparent KD of MS2 coat protein (input ligand: FMN 200 uM) [nM]	apparent KD of MS2 coat protein (input ligand: none) [nM]
AAAAUAAAGGCAGGAUAUACAUGAAUAAAUAAAAUAAUAUAAAAUAAAACAUGAGGAUCACCCAUGUAGAAGGGCCAAAAUAAA [LRO022_Exclusion NG 2]	187	83.3
AGCGGUGCGUGUGUUGUGACACAUGAGGAUCACCCAUGUAGGAAGGAUAUGCAGUUGGGCACGCGGCAGAAGGUCCGACAUGGA [Riuscein]	58.6	529
GCGUGUGGAUCAGGAUAUUACAUGAGGAUCACCCAUGUAGGCAUGAGGGUCACCCGUGUUGUGUGUAAGAAGGGAUCGCCCGUG [Exclusion2]	74.1	46
